The source of these data is patent US20150118286.

The test system of one data set is T1, P18 peptide.
T1 sequence: RRYWYWRR

The next data set deals with T2, P16 peptide.
T2 sequence: RRWWRRYY

A further data set concerns T3, P17 peptide.
T3 sequence: RRRYWYYR

Take Human tyrosinase: the results for the “reduction of human tyrosinase activity at 200 µM (L-dopa substrate)” value in the data set on P18 peptide, in the data set on P16 peptide and in the data set with P17 peptide were 25% for P18, “human tyrosinase activity was reduced by 30% for P16” and 12% for P17, respectively.
